We go through one protein from paper PMC6039492, “Oligomerization of a G protein-coupled receptor in neurons controlled by its structural dynamics” (Scientific Reports, 2018).

Several values for one entry are separate records, joined by “and”; a condition that tells them apart may be missing. Equal values may be shown once.

Series [1] concerns the molecule itself. The experiment in a line: two-photon scanning number and brightness (sN&B) fluctuation microscopy; live cultured rat hippocampal neurons, SNAP-tag labelled with Alexa488, with antagonist (400 nM LY341495) during labelling and imaging; numbers for 90-600 subunits/Veff.
Series [2] concerns the molecule itself. The experiment in a line: two-photon scanning number and brightness (sN&B) fluctuation microscopy; live cultured rat hippocampal neurons, SNAP-tag labelled with Alexa488, incubated with 150 μM CuP for the last 10 min of labelling, imaged in the absence of ligand; 90-600 subunits/Veff; apparent stoichiometry (lower with CuP).
Series [3] deals with the molecule itself. Kind of series: two-photon scanning number and brightness (sN&B) fluctuation microscopy; live cultured rat hippocampal neurons, SNAP-tag labelled with Alexa488, incubated with 150 μM CuP, bound to antagonist (400 nM LY341495); 90-600 subunits/Veff; apparent stoichiometry (lower with CuP).
Series [4] deals with the molecule itself. Kind of series: two-photon scanning number and brightness (sN&B) fluctuation microscopy; live cultured rat hippocampal neurons, cell-surface SNAP-tagged receptor labelled with Alexa488, imaging buffer pH 7.3, no ligand (basal); numbers for expression of 90-600 subunits/Veff; brightness normalised to monomeric Alexa488.
Series [5] deals with the molecule itself. The experiment in a line: two-photon scanning number and brightness (sN&B) fluctuation microscopy; live cultured rat hippocampal neurons, SNAP-tag labelled with Alexa488, with agonist and PAM (10 nM LY379268 + 3 μM BINA) during labelling and imaging; numbers for 90-600 subunits/Veff.

B1: metabotropic glutamate receptor type 2 (mGlu2), wild type, with a SNAP-tag fused to the extracellular N-terminus (HA-ST-mGlu2) (receptor, rat, UniProt P31421 19-872, looked up)
chain: EGPAKKVLTLEGDLVLGGLFPVHQKGGPAEECGPVNEHRGIQRLEAMLFALDRINRDPHLLPGVRLGAHILDSCSKDTHALEQALDFVRASLSRGADGSRHICPDGSYATHSDAPTAVTGVIGGSYSDVSIQVANLLRLFQIPQISYASTSAKLSDKSRYDYFARTVPPDFFQAKAMAEILRFFNWTYVSTVASEGDYGETGIEAFELEARARNICVATSEKVGRAMSRAAFEGVVRALLQKPSARVAVLFTRSEDARELLAATQRLNASFTWVASDGWGALESVVAGSERAAEGAITIELASYPISDFASYFQSLDPWNNSRNPWFREFWEERFHCSFRQRDCAAHSLRAVPFEQESKIMFVVNAVYAMAHALHNMHRALCPNTTHLCDAMRPVNGRRLYKDFVLNVKFDAPFRPADTDDEVRFDRFGDGIGRYNIFTYLRAGSGRYRYQKVGYWAEGLTLDTSFIPWASPSAGPLPASRCSEPCLQNEVKSVQPGEVCCWLCIPCQPYEYRLDEFTCADCGLGYWPNASLTGCFELPQEYIRWGDAWAVGPVTIACLGALATLFVLGVFVRHNATPVVKASGRELCYILLGGVFLCYCMTFVFIAKPSTAVCTLRRLGLGTAFSVCYSALLTKTNRIARIFGGAREGAQRPRFISPASQVAICLALISGQLLIVAAWLVVEAPGTGKETAPERREVVTLRCNHRDASMLGSLAYNVLLIALCTLYAFKTRKCPENFNEAKFIGFTMYTTCIIWLAFLPIFYVTSSDYRVQTTTMCVSVSLSGSVVLGCLFAPKLHIILFQPQKNVVSHRAPTSRFGSAAPRASANLGQGSGSQFVPTVCNGREVVDSTTSSL
modifications: Alexa488 (BG-Alexa488) covalently on the SNAP-tag
notes: metabotropic glutamate receptor 2 (mGlu2), rat, wild type; HA-tag and SNAP-tag inserted just after the signal peptide; pRK5 plasmid, CMV promoter exchanged for the synapsin-1 promoter; also called mGlu2 receptor; wild type receptor; source: cultured rat hippocampal neurons, transfected (Lipofectamine 2000), on live cells; not shown: SNAP-tag, N-terminal, kept
Usually stoichiometry N stands for a count of units in the complex or per binding partner. Regarding B1, the “stoichiometry N” value is 3.7 subunits/complex in series [1]; 1.7 subunits/complex in series [2]; 3 subunits/complex in series [3]; 2.2 subunits per complex and 1.66 subunits/complex in series [4]; 4 subunits/complex in series [5].
